Source: article PMC3087496 (Biochemistry, 2011)

Target: wild-type His6-Gαi1 (rat, UniProt P10824 1-354)
Test: SEC

Chain of wild-type His6-Gαi1 (P10824 whole entry): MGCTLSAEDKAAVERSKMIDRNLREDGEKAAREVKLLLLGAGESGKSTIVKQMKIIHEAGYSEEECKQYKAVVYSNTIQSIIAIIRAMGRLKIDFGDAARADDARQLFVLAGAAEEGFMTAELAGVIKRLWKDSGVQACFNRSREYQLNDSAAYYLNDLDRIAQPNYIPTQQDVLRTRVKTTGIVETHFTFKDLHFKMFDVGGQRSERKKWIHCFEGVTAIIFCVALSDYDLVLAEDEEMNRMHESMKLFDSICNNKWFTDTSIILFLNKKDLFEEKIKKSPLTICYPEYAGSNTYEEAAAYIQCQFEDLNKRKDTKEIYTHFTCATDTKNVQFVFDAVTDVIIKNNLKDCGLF

binding result: binds
B1: TxHis6-ΔRGS14 (encoding amino acids 299-544, including the RBD domains and GL domain) (domain or fragment, rat, UniProt O08773 299-544, looked up)
chain: GKYCCVYLPDGTASLALARPGLTIRDMLAGICEKRGLSLPDIKVYLVGKEQKALVLDQDCTVLADQEVRLENRITFQLELVGLERVVRISAKPTKRLQEALQPILAKHGLSLDQVVLHRPGEKQLVDLENLVSSVASQTLVLDTLPDAKTREASSIPPCRSQGCLPRTQTKDSHLPPLSSSLSVEDASGSTGKRQTCDIEGLVELLNRVQSSGAHDQRGLLRKEDLVLPEFLQLPSQRPGSQEAPP
